Target: recombinant human ROR1 ectodomain containing a C-terminal Avi tag, biotinylated (human) (UniProt Q01973)
Assay: cell-based or functional assay

Sequence of UniProt Q01973 (Q01973 30-406): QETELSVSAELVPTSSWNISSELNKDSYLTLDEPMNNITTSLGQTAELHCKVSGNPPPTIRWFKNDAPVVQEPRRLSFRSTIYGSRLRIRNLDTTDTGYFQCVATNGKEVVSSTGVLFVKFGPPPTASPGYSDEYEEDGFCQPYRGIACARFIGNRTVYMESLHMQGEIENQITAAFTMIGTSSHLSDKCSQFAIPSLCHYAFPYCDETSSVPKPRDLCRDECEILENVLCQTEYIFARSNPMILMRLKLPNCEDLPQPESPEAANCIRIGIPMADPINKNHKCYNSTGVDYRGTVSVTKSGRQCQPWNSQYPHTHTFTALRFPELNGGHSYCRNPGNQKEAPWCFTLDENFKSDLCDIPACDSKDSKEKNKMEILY

ROR1-specific 4-1BB/CD3ζ CAR backbone containing a StrepTag II (STII) sequence and two G4S linkers inserted between the R12 scFv and IgG4 hinge (from UniProt P10747 153-179; Q07011 214-255; P20963 52-163)
fraction of CAR T cells activated (Ca2+ mobilization, Fluo-4) during 20 minutes on a ROR1-containing bilayer: < 10%
